T1: HIM-3-6His (C. elegans, UniProt G5EBG0 1-291)
T1 sequence (looked up): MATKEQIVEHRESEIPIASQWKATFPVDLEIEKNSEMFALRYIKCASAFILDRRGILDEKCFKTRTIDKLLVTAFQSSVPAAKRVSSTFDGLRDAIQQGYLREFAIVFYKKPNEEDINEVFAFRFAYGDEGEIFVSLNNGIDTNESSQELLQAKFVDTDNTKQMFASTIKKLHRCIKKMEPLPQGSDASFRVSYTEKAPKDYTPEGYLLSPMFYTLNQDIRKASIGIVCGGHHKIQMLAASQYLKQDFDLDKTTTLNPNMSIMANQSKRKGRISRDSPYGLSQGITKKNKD

T2: HIM-3 part of the chimeric protein HIM-3:HTP-3 motif #4 (C. elegans, UniProt G5EBG0 1-276)
T2 sequence (looked up): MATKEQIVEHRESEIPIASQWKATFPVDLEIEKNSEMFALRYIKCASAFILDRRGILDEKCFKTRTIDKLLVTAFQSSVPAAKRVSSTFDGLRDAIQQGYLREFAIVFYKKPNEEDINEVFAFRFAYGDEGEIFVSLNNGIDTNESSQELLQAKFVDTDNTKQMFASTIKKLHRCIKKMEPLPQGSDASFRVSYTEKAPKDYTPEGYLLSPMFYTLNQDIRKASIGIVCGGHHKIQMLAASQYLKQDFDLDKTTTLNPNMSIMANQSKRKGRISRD


Assays:
[1] = biological target: T1, HIM-3-6His
[2] = biological target: T2, HIM-3 part of the chimeric protein …; experiment: crystal structure

| Binder | stoichiometry N [1] | binding result [2] |
| --- | --- | --- |
| HTP-2 (co-expressed; tag not told) (natural protein, C. elegans, UniProt Q95XC8 1-352, looked up) MAPLENNYNESLNKSKDAIDDKTWSKLFPSIVSDPDRSSNFMIRAIYVVFSAVLRQRNILEKEYFSKNYITENLSCMTLSFKNLRAHQIAQLLRAAGDATKDGFLKEISLVVTEHDGDVEAIEVFSMKFIYFENGGVVARLSTDNNDQEDPHFAELAQLRYEGAESVRDQMVTIVRSVQFLCTKVLEPLPAEFTANFRLKYTNDAPSNFRIDGFDDSSTFYTLPDGIQSVTIGHLRPGHHAAHMQCWSKSMSDSYAAELTLKGHLDKVSDMYAFNPVNVLYKSFNSEDTDPGLSQDTTESANDQGGNVTSPVDNITDSLEKTQMSPIKMRPTTRRGADDSKTRSSPYSRSRK | 1 HTP-2 per HIM-3 | – |
| HTP-1 (untagged, co-expressed) (natural protein, C. elegans, UniProt Q20305 1-352, looked up) MAPLETIYDESLNKSADSIDDKKWSKLFPRIVSDPDRSSNFMTRAIYVAFSAVLRNRNILGQEYFTKNYITEKLKCMTLCFRNPRSNQIAQLLRNAGDATKDGFLKEVSLVITNNEGDLEAIEVFSMKFIYFENGGVVARLSTDKNGQEDPHFAKLAQLVYEGGDSVRDQMVTIVRSVQFLCTKVLEPLPEEFTANFRLEYTNDAPSNFRIDGFEDSSTFYTLPDDIQSATIGHLRPGCHAANMECWSMLMSDSYEAELTLKRHLDKVSDRHGFNPVNVLYKSFNSEDSDTSLSQATTESVNDQGGNETSPVDDITESLEKAQMSPIQTRPTTRRGADGSKTRSSPYSRSCK | 1 HTP-1 per HIM-3 | – |
| RHYGRVSSILDVAGS (peptide, UniProt O01820 649-663, looked up) [HTP-3 motif #4 (residues 649-663) as placed in the HIM-3 chimera] | – | binds |
